# Measurements published in PMC8761706, “Mapping of the fibrinogen-binding site on the staphylocoagulase C-terminal repeat region” (The Journal of Biological Chemistry, 2021).
# B1: fibrinogen fragment D (domain or fragment)
# chain 1: VSEDLRSRIEVLKRKVIEKVQHIQLLQKNVRAQLVDMKRLEVDIDIKIRSCRGSCSRALAREVDLKDYEDQQKQLEQVIAKDLLPSR
# chain 2: DNENVVNEYSSELEKHQLYIDETVNSNIPTNLRVLRSILENLRSKIQKLESDVSAQMEYCRTPCTVSCNIPVVSGKECEEIIRKGGETSEMYLIQPDSSVKPYRVYCDMNTENGGWTVIQNRQDGSVDFGRKWDPYKQGFGNVATNTDGKNYCGLPGEYWLGNDKISQLTRMGPTELLIEMEDWKGDKVKAHYGGFTVQNEANKYQISVNKYRGTAGNALMDGASQLMGENRTMTIHNGMFFSTYDRDNDGWLTSDPRKQCSKEDGGGWWYNRCHAANPNGRYYWGGQYTWDMAKHGTDDGVVWMNWKGSWYSMRKMSMKIRPFFPQQ
# chain 3: KMLEEIMKYEASILTHDSSIRYLQEIYNSNNQKIVNLKEKVAQLEAQCQEPCKDTVQIHDITGKDCQDIANKGAKQSGLYFIKPLKANQQFLVYCEIDGSGNGWTVFQKRLDGSVDFKKNWIQYKEGFGHLSPTGTTEFWLGNEKIHLISTQSAIPYALRVELEDWNGRTSTADYAMFKVGPEADKYRLTYAYFAGGDAGDAFDGFDFGDDPSDKFFTSHNGMQFSTWDNDNDKFEGNCAEQDGSGWWMNKCHAGHLNGVYYQGGTYSKASTPNGYDNGIIWATWKTRWYSMKKTTMKIIPFNRLTIGEGQQHHLGGAK
# Experiments:
# [1] = molecular target: T1, [5F]PR–R1 (Staphylococcus aureus Newman D2 Tager …, 5-fluorescein (5-IAF) on the engineered C-terminal Cys); assay: other fluorescence titration; fluorescein-labeled construct at fixed concentration titrated with frag D; fluorescence intensity; 25 °C; 50 mM Hepes, 110 mM NaCl, 5 mM CaCl2, 1 mg/ml PEG-8000, pH 7.4, 10 μM FPR-CK; quadratic fit; n fixed to 1 for the Ala constructs and MP; settings: both partners purified
# T1 construct: the 10 SC residues preceding PR (1-10 of the construct numbering); staphylocoagulase, first 11 residues of the 32-residue pseudorepeat PR (11-21 of the construct numbering); last 21 residues of PR (22-42 of the construct numbering); staphylocoagulase repeat R1, 27 residues; engineered C-terminal Cys for labeling; not shown: His6, N-terminal, cleaved
# [2] = molecular target: T1, [5F]PR–R1; assay: other fluorescence titration; as the intensity titration in Hepes pH 7.4, with saturating GPRP (4.9 mM in the methods, 5 mM in the results); n fixed to 1; settings: both partners purified
binder,measurement,setting,value
B1,Kd,[1],49 nM
same,Kd,[2],18 nM
